Patent US20210070868A1

Biological target: w.t. (UniProt P08581)
Assay: ELISA

- Kd: 0.446 nM
Substance: DN30
